Source: US20180155451A1 (published 2018)

T1: FcγRIIb (human, UniProt P31994 43-217)
T1 construct: extracellular domain; also called FcgRIIb; 2b; not shown: His tag at the C terminus
T1 sequence (looked up): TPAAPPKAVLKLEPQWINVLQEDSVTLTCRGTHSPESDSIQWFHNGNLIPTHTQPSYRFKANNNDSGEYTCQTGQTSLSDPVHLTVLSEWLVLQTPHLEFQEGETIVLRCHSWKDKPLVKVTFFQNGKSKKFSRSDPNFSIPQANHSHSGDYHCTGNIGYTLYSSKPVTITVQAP

T2: FcγRIIb (human, UniProt P31994 43-217)
T2 construct: extracellular domain; Soluble extracellular domain with C-terminal His tag, used as analyte in Biacore; also called FcgRIIb; 2b; not shown: His tag attached to the C terminus
T2 sequence (looked up): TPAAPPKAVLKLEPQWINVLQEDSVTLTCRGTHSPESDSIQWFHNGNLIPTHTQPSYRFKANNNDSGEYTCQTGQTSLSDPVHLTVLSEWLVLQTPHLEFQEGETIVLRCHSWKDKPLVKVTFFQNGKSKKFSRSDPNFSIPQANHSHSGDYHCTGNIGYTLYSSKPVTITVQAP


Experiments:
FcγRIa [1] = target: T3, FcγRIa (human, UniProt P12314 16-292); assay: SPR; He/Con_1a divided by He/Con_2b (FcγRIIb as reference)
T3 construct: extracellular domain; also called FcgRI; 1a; not shown: His tag at the C terminus
T3 sequence (P12314 16-292): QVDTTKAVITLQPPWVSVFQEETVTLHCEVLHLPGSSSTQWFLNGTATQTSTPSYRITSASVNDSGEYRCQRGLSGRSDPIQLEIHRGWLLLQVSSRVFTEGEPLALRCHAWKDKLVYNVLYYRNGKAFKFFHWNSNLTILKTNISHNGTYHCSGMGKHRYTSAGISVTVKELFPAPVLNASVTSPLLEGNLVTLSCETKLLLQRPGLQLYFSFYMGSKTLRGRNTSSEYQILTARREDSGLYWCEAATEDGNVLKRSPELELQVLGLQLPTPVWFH

FcγRIa [2] = target: T3, FcγRIa; assay: SPR (Biacore), captured antibody, soluble FcγR; relative to GpH7-A5/GpH7-B3/GpL16-k0
FcγRIIb [3] = target: T1, FcγRIIb; assay: as above
FcγRIa [4] = target: T4, FcγRIa (human, UniProt P12314 16-292); assay: SPR (Biacore); He/Con_1a divided by He/Con_2b (FcγRIa against FcγRIIb)
T4 construct: extracellular domain; Soluble extracellular domain with C-terminal His tag, used as analyte in Biacore; also called FcgRI; 1a; not shown: His tag attached to the C terminus
T4 sequence (P12314 16-292): as above

FcγRIa [5] = target: T4, FcγRIa; assay: SPR (Biacore), antibody captured on antigen peptide, FcγR as analyte; relative to GpH7-A5/GpH7-B3/GpL16-k0 = 100
FcγRIIb [6] = target: T2, FcγRIIb; assay: as above

Ia/IIb He_1a/2b (FcγRIa [1]) [ratio] | He/Con_1a (FcγRIa [2]) | He/Con_2b (FcγRIIb [3]) | Ia/IIb He_1a/2b (FcγRIa [4]) [ratio] | He/Con_1a (FcγRIa [5]) | He/Con_2b (FcγRIIb [6]) | Binder
2.96 | 44.3 relative, HeCon Ab = 100 | 15 relative, HeCon Ab = 100 | – | – | – | GpH7-A5/GpH7-B3 variant D265_12R/GpL16-k0 (antibody, human IgG1, kappa, He Ab: mutation only in the GpH7-B3 H chain; EU numbering; also called He Ab) heavy 1: not shown heavy 2: not shown light: DIVMTQSPLSLPVTPGEPASISCQASESLVHSNRNTYLHWYLQKPGQSPQLLIYKVSNRFSGVPDRFSGSGSGTDFTLKISRVEAEDVGVYYCSQNTHVPPTFGQGTKVEIERTVAAPSVFIFPPSDEQLKSGTASVVCLLNNFYPREAKVQWKVDNALQSGNSQESVTEQDSKDSTYSLSSTLTLSKADYEKHKVYACEVTHQGLSSPVTKSFNRGEC
12.4 | 56.8 relative, HeCon Ab = 100 | 4.6 relative, HeCon Ab = 100 | – | – | – | GpH7-A5/GpH7-B3 variant D265_08L/GpL16-k0 (antibody, human IgG1, kappa, He Ab: mutation only in the GpH7-B3 H chain; EU numbering; also called He Ab) heavy 1: not shown heavy 2: not shown light: DIVMTQSPLSLPVTPGEPASISCQASESLVHSNRNTYLHWYLQKPGQSPQLLIYKVSNRFSGVPDRFSGSGSGTDFTLKISRVEAEDVGVYYCSQNTHVPPTFGQGTKVEIERTVAAPSVFIFPPSDEQLKSGTASVVCLLNNFYPREAKVQWKVDNALQSGNSQESVTEQDSKDSTYSLSSTLTLSKADYEKHKVYACEVTHQGLSSPVTKSFNRGEC
7.57 | 75.7 relative, HeCon Ab = 100 | 10 relative, HeCon Ab = 100 | – | – | – | GpH7-A5/GpH7-B3 variant D265_06M/GpL16-k0 (antibody, human IgG1, kappa, He Ab: mutation only in the GpH7-B3 H chain; EU numbering; also called He Ab) heavy 1: not shown heavy 2: not shown light: DIVMTQSPLSLPVTPGEPASISCQASESLVHSNRNTYLHWYLQKPGQSPQLLIYKVSNRFSGVPDRFSGSGSGTDFTLKISRVEAEDVGVYYCSQNTHVPPTFGQGTKVEIERTVAAPSVFIFPPSDEQLKSGTASVVCLLNNFYPREAKVQWKVDNALQSGNSQESVTEQDSKDSTYSLSSTLTLSKADYEKHKVYACEVTHQGLSSPVTKSFNRGEC
41.2 | 54.4 relative, HeCon Ab = 100 | 1.3 relative, HeCon Ab = 100 | – | – | – | GpH7-A5/GpH7-B3 variant D265_07I/GpL16-k0 (antibody, human IgG1, kappa, He Ab: mutation only in the GpH7-B3 H chain; EU numbering; also called He Ab) heavy 1: not shown heavy 2: not shown light: DIVMTQSPLSLPVTPGEPASISCQASESLVHSNRNTYLHWYLQKPGQSPQLLIYKVSNRFSGVPDRFSGSGSGTDFTLKISRVEAEDVGVYYCSQNTHVPPTFGQGTKVEIERTVAAPSVFIFPPSDEQLKSGTASVVCLLNNFYPREAKVQWKVDNALQSGNSQESVTEQDSKDSTYSLSSTLTLSKADYEKHKVYACEVTHQGLSSPVTKSFNRGEC
17.3 | 55.7 relative, HeCon Ab = 100 | 3.2 relative, HeCon Ab = 100 | – | – | – | GpH7-A5/GpH7-B3 variant D265_03V/GpL16-k0 (antibody, human IgG1, kappa, He Ab: mutation only in the GpH7-B3 H chain; EU numbering; also called He Ab) heavy 1: not shown heavy 2: not shown light: DIVMTQSPLSLPVTPGEPASISCQASESLVHSNRNTYLHWYLQKPGQSPQLLIYKVSNRFSGVPDRFSGSGSGTDFTLKISRVEAEDVGVYYCSQNTHVPPTFGQGTKVEIERTVAAPSVFIFPPSDEQLKSGTASVVCLLNNFYPREAKVQWKVDNALQSGNSQESVTEQDSKDSTYSLSSTLTLSKADYEKHKVYACEVTHQGLSSPVTKSFNRGEC
– | – | – | 0.65 | 99.3 % of control | 152 % of control | GpH7-A5/GpH7-B3 variant V266_07I/GpL16-k0 (antibody, human IgG1, kappa, Heterodimerized IgG1; mutation in the GpH7-B3 H chain only; also called He Ab) heavy 1: not shown heavy 2: not shown light: DIVMTQSPLSLPVTPGEPASISCQASESLVHSNRNTYLHWYLQKPGQSPQLLIYKVSNRFSGVPDRFSGSGSGTDFTLKISRVEAEDVGVYYCSQNTHVPPTFGQGTKVEIERTVAAPSVFIFPPSDEQLKSGTASVVCLLNNFYPREAKVQWKVDNALQSGNSQESVTEQDSKDSTYSLSSTLTLSKADYEKHKVYACEVTHQGLSSPVTKSFNRGEC
4.9 | 78.5 relative, HeCon Ab = 100 | 16 relative, HeCon Ab = 100 | – | – | – | GpH7-A5/GpH7-B3 variant D265_14T/GpL16-k0 (antibody, human IgG1, kappa, He Ab: mutation only in the GpH7-B3 H chain; EU numbering; also called He Ab) heavy 1: not shown heavy 2: not shown light: DIVMTQSPLSLPVTPGEPASISCQASESLVHSNRNTYLHWYLQKPGQSPQLLIYKVSNRFSGVPDRFSGSGSGTDFTLKISRVEAEDVGVYYCSQNTHVPPTFGQGTKVEIERTVAAPSVFIFPPSDEQLKSGTASVVCLLNNFYPREAKVQWKVDNALQSGNSQESVTEQDSKDSTYSLSSTLTLSKADYEKHKVYACEVTHQGLSSPVTKSFNRGEC
2.66 | 101 relative, HeCon Ab = 100 | 38.2 relative, HeCon Ab = 100 | – | – | – | GpH7-A5/GpH7-B3 variant D265_10E/GpL16-k0 (antibody, human IgG1, kappa, He Ab: mutation only in the GpH7-B3 H chain; EU numbering; also called He Ab) heavy 1: not shown heavy 2: not shown light: DIVMTQSPLSLPVTPGEPASISCQASESLVHSNRNTYLHWYLQKPGQSPQLLIYKVSNRFSGVPDRFSGSGSGTDFTLKISRVEAEDVGVYYCSQNTHVPPTFGQGTKVEIERTVAAPSVFIFPPSDEQLKSGTASVVCLLNNFYPREAKVQWKVDNALQSGNSQESVTEQDSKDSTYSLSSTLTLSKADYEKHKVYACEVTHQGLSSPVTKSFNRGEC
16.8 | 53 relative, HeCon Ab = 100 | 3.2 relative, HeCon Ab = 100 | – | – | – | GpH7-A5/GpH7-B3 variant D265_04F/GpL16-k0 (antibody, human IgG1, kappa, He Ab: mutation only in the GpH7-B3 H chain; EU numbering; also called He Ab) heavy 1: not shown heavy 2: not shown light: DIVMTQSPLSLPVTPGEPASISCQASESLVHSNRNTYLHWYLQKPGQSPQLLIYKVSNRFSGVPDRFSGSGSGTDFTLKISRVEAEDVGVYYCSQNTHVPPTFGQGTKVEIERTVAAPSVFIFPPSDEQLKSGTASVVCLLNNFYPREAKVQWKVDNALQSGNSQESVTEQDSKDSTYSLSSTLTLSKADYEKHKVYACEVTHQGLSSPVTKSFNRGEC
